According to article PMC10815921, “Mimicking Protein Kinase C Phosphorylation Inhibits Arc/Arg3.1 Palmitoylation and Its Interaction with Nucleic Acids” (International Journal of Molecular Sciences, 2024):

B1: Arc ΔH1 (aa 33–70 deleted) (natural protein, mouse, UniProt Q9WV31 1-396, looked up)
chain: MELDHMTTGGLHAYPAPRGGPAAKPNVILQIGLENNLDGYVPTGDSQRWKKSIKACLCRCQETIANLERWVKREMHVWREVFYRLERWADRLESMGGKYPVGSEPARHTVSVGVGGPEPYCQEADGYDYTVSPYAITPPPAAGELPEQESVEAQQYQSWGPGEDGQPSPGVDTQIFEDPREFLSHLEEYLRQVGGSEEYWLSQIQNHMNGPAKKWWEFKQGSVKNWVEFKKEFLQYSEGTLSREAIQRELELPQKQGEPLDQFLWRKRDLYQTLYVDAEEEEIIQYVVGTLQPKLKRFLRHPLPKTLEQLIQRGMEVQDGLEQAAEPSGTPLPTEDETEALTPALTSESVASDRTQPE
notes: Arc (Arg3.1), mouse, lacking helix H1 (residues 33-70); Made by PCR from the full-length GST-Arc construct; source: E. coli Rosetta 2, purified (glutathione resin, released with TEV protease; with or without 35% ammonium sulfate precipitation); not shown: GST, N-terminal, cleaved
B2: Arc S84,90E phosphomimetic mutant (natural protein, mouse, UniProt Q9WV31 1-396, looked up)
chain: MELDHMTTGGLHAYPAPRGGPAAKPNVILQIGKCRAEMLEHVRRTHRHLLTEVSKQVERELKGLHRSVGKLENNLDGYVPTGDEQRWKKEIKACLCRCQETIANLERWVKREMHVWREVFYRLERWADRLESMGGKYPVGSEPARHTVSVGVGGPEPYCQEADGYDYTVSPYAITPPPAAGELPEQESVEAQQYQSWGPGEDGQPSPGVDTQIFEDPREFLSHLEEYLRQVGGSEEYWLSQIQNHMNGPAKKWWEFKQGSVKNWVEFKKEFLQYSEGTLSREAIQRELELPQKQGEPLDQFLWRKRDLYQTLYVDAEEEEIIQYVVGTLQPKLKRFLRHPLPKTLEQLIQRGMEVQDGLEQAAEPSGTPLPTEDETEALTPALTSESVASDRTQPE
notes: Arc (Arg3.1), mouse, with serines 84 and 90 mutated to glutamic acid; source: E. coli Rosetta 2, purified (glutathione resin, released with TEV protease); not shown: GST, N-terminal, cleaved

Legend:
[1] = target: the molecule itself; experiment: SEC; HiLoad 16/600 Superdex 200, solution B (20 mM HEPES pH 7.5, 100 mM NaCl, 0.5 mM TCEP), 4 °C; proteins prepared without ammonium sulfate treatment (bound nucleic acids kept); loads 25-70 µM
[2] = target: the molecule itself; experiment: dynamic light scattering; ~20 µM, 25 °C, 20 mM HEPES pH 7.5, 100 mM NaCl, 1 mM TCEP; Arc^WT was ammonium sulfate-treated (nucleotide-free)

| Protein | binding result [1] | binding result [2] |
| --- | --- | --- |
| B1 | binds | – |
| B2 | – | binds |
